Measured values: the RNAGym collection of RNA variant scans (doi:10.7554/elife.90254)

B1: OR4K15 (parent)
chain: GUUAACGGUCAUAGGCCAUGGAAACUAGGAGCACCAUUUCGCUGCCAGUGAAGAAAUGAACAAAGAAAAUCUGGGCCAGGCAGGCAUCAAAAGAAAUAGUCUUGCGCUCAACCAGAAAGUCUGUAAUCAUUUUAAGGGUA

Variants of: B1
Assay: self-cleavage, relative activity (ratio to wild type); higher = more cleavage; in vitro, sequencing; the parent is a self-cleaving ribozyme

Variant	self-cleavage
A94G A114G	0.36
A30U A96G	0.89
U3C U103A	0.64
A64U G115A	0.02
A91G U130C	0.54
U39A A90G	0.95
A63G G99A	0.76
U49C G50U	2.22
C71A	0.61
A52G A66G	1.75
A94G A96G	1.35
A90G C107A	0.02
A60G C71U	0.1
A24G A78U	0.39
A114U U122A	0.04
A114U U122C	0.04
A52G A114U	0.14
C81A A92G	0.26
A5G C35U	1.59
A118U U124C	0.45
G73A U122C	0.04
A5G A33U	1.01
U49C U102A	0.53
C101U A118G	0.02

Variant	self-cleavage
A82U A118G	0.06
A13G A36U	0.67
G83A U131A	0.94
A56G C109A	0.34
U12G A13G	1.09
A96C U103C	0.9
G1U U39A	1.74
G99A A111G	0.02
U9C U87C	0.96
A117G A126C	1.79
A110U A111G	0.01
U26C A111G	0.03
U70C U130C	0.21
G106A A111U	0
G48A U102C	1.99
C34U U122C	2.62
A66G U130G	0.2
A47G A94C	1.1
G28A A55G	1.7
A54U A59G	1.75
C35U A56G	1.13
A11C A60G	1.07
C105U A114G	0.07
A51C A62G	0.72

Variant	self-cleavage
A18G U132C	0.77
A30U A126G	1.03
A111C U131C	0
C34U C128A	1.3
G75A U97C	0.15
A27G G123U	1.67
A47C A111U	0.07
G8A A98G	1.78
A36G C113U	0.07
A51G C71A	0.89
A13G A90G	1.15
A23U A78U	0.2
G58A G106A	0.01
A51G G104A	0.03
A68U U97G	1.94
A96C G104A	0.02
A116G A117C	0.1
G53C U57G	0.65
A51U G104A	0.01
U37C A89U	2.23
U37C A89C	1.31
U49A A89C	0.85
A111U A118G	0.05
A5C U127C	0.89

Variant	self-cleavage
C6A A125G	0.29
A55U A90G	1.36
G50U G53A	2.2
A69C A96C	1.03
U57G A90G	0.88
A90G C105U	0.04
A82U U103C	0.03
U97A A98U	2.29
A4G A24G	1.62
A82G A116U	0.07
G41A A67G	1.02
A5G U70A	0.75
A86G A91G	0.16
A59U U108C	0.02
A66G A92U	1.98
U103C A129U	0.29
G50A A51G	1.82
A24G G41A	1.45
A89U U131C	1.47
A36U A117U	0.88
A94G U130A	1.41
A5G A51U	1.35
G20U A78G	0.26
A18U A68G	0.74

Variant	self-cleavage
A59C U124A	0.73
A33U U39C	1.56
U26A A62G	1.75
A89U C121U	2.24
G74C U139C	0.15
A63G A126G	1.13
U2G A111U	0.17
U9C U102C	2.15
A95G A111U	0.15
A24G A59G	1.23
C35U A52G	1.03
A68G G75A	0.1
C10U A82U	0.13
A62U A89U	1.93
A86U A117G	2.1
U19A A134U	0.89
A91G C112U	0.01
A117G A135G	2.66
A18U A129G	1.24
A18C A140G	0.94
U9C A96U	1.72
A22G U132A	1.93
A55U U100A	0.82
A116C U133C	0.28

Variant	self-cleavage
A47G A89G	1.1
C45U C77A	0.42
A24C U100C	1.84
U103A G137A	0.85
U87A U131C	1.67
G50A C113A	0
U37C U43A	1.55
U39C G106U	0.02
U3C A89U	0.54
U2C G74A	0.18
U2C A67U	0.85
A22G A59G	1.07
G31U U120C	1.21
A51U A60G	0.92
U70C A117G	1.21
G79U A94G	0.43
A23U A94G	1.18
A24U U127C	1.36
U43A U57A	1.79
U9C G48A	0.64
A98G A125G	0.13
A78C U100A	0.11
A36G A125G	0.6
C40A A91G	1.76

Variant	self-cleavage
U12A A22C	1.51
U39C G123A	2.04
A60G C128G	0.87
A13U A59G	0.41
A55G A60G	1
A59G A110U	0.97
C42A A52G	1.41
U2C A86U	2.13
C16U A114G	0.2
G48C A63G	1.45
U72C A78U	0.15
A116U G138U	0.03
A11G C85A	1.53
A23U A110U	0.93
U19G U100A	0.74
A64U	1.23
A30G A92G	1.05
U122C U130C	0.64
A69U U87A	1.79
A22G G83U	0.54
A68G G106U	0.02
A62G A110U	2.32
A22G U87A	1.28
A59G A64U	0.74

Variant	self-cleavage
A47U C101U	0.22
U39A G48U	1.24
A23U U37C	1.41
C6A A94G	0.36
U43A A47G	1.12
A22G C40U	1.85
U38A G75C	0.03
C45A U131C	0.26
U38C A62U	1.06
A69G A111G	0.03
A18U A114G	0.35
A69G U132C	1.56
A116U A129G	0.13
U2C G14A	1.39
A11U A63U	1.56
A60G U70A	1.3
A23G U100A	0.74
A51U A55G	0.55
G74U G104A	0.02
A36G U120C	1.28
U9C U19C	1.77
U39C U49C	0.91
C85A A135G	1.54
U132A A140U	0.14

Variant	self-cleavage
U2G A23G	0.75
G50U A125U	2.34
A5G G106C	0.08
U103A	0.39
U2A A135U	0.96
U9A A54G	1.42
U39C U108A	0.03
U2C U57G	0.66
G84U U130C	0.28
A36U U108C	0.02
A78G A89U	0.24
A33C U127C	1.38
A5U G104A	0.09
U9G C45G	0.5
A18U U103C	1.29
U87A C88U	1.17
A89C A91G	0.72
U38G C107U	0.02
G106U A118G	0.02
G14A A36U	0.83
C35A G99U	0.79
U19A A68G	1.64
A89G U124A	1.38
A86G A89U	1.86

Variant	self-cleavage
A18G U49A	1.54
A27U A62G	1.61
U87G A111G	0.02
U9A A51U	1.34
A27G U43C	1.41
A51G A82U	0.25
U87C U133A	0.9
A62C A116G	0.78
U9C A134G	1.55
A66U A89U	0.62
C113U U131C	0
A11U A64G	1.56
A118C U139A	1.24
A23G A27G	0.89
C6G U87C	0.65
A60G U72C	0.17
U72C C109U	0.06
U72C C109A	0.07
A51G A55G	0.97
U57A A140G	1.3
A92G A95U	1.8
C113U A129G	0.01
A68G U72A	0.26
A68G U72C	0.29

Variant	self-cleavage
A95G U103C	1.25
A5G A68C	1.03
U19C A86G	1.37
A69U A91G	1.79
A24G C112U	0.02
A27G U124C	0.9
A60U A69G	1.51
A95G A96U	0.7
A54G U127A	2.16
A55C A59G	0.36
U19C A69U	1.62
C34A A55G	1.25
A18U A30G	1.39
U100C U102C	1.62
A23G U70C	0.64
A62G A68G	1.12
A33G A94G	0.75
A52G A91U	2.17
U102C U130A	1.61
U49A A66U	1.29
G58U A110G	0.11
A51C A92U	0.57
A36U U72G	0.29
U9A G115A	0.23

Variant	self-cleavage
U72C G104A	0.01
C40U A118G	1.21
G8A U43A	2.05
A90U U131C	2.68
U38A G93A	2.09
A114C	0.04
G20U A33U	0.94
A23G U49A	1.12
A30G U43C	1.39
G80A U130C	0.08
A24U C76U	0.06
A68U A117G	0.37
A62C	1.64
A56G G83A	1.67
C46U G138U	1.93
U12G C105U	0.22
A30G U132G	0.69
U38G U127C	1.37
A11C U38C	1.72
U2C U87A	0.9
A98U U131C	2.12
U49G A98G	0.14
U124A A125G	0.91
A13C A66G	0.52

Variant	self-cleavage
U26C U122A	1.87
A13G G104A	0.06
A18U U122C	0.87
G8A A59G	1.47
U19C A82G	0.61
G106C	0.01
A125U	1.81
A5C A98G	0.42
A27U G115A	0.07
C40A A64G	2.37
A56G A91U	1.21
A24U	1.41
G14C	1.4
U97C A125G	0.31
U19C C85U	0.88
A36U A125G	0.7
U19C A125G	0.61
U57C A78G	0.23
A89G A110U	0.77
A47C A96G	1.82
G58U U108C	0.02
A13G C88U	1.29
U39C A91U	1.59
U37C U49C	1.71

Variant	self-cleavage
A63U A98G	0.8
U49C A90C	0.97
G58A A116G	0.29
A67G G75C	0.03
C16A A56C	0.52
A66G A118C	1.11
C85U U103C	0.34
C81U C112U	0.01
A98G U122A	0.57
A62G U122A	1.07
A98G G104A	0.01
C6A A11G	2.1
A4G U122C	0.78
A54U U122C	1.27
A63C	1.81
A56G A134G	1.2
G75A A90G	0.13
A86U A118G	1.33
U39C A116G	0.83
U19G A91G	1.28
A68U A86G	1.44
A11G A69G	0.99
